B1: CerS2-HA [not stated] / FATP2-Flag [human] (parent)
chain 1: MLQTLYDYFWWERLWLPVNLTWADLEDRDGRVYAKASDLYITLPLALLFLIVRYFFELYVATPLAALLNIKEKTRLRAPPNATLEHFYLTSGKQPKQVEVELLSRQSGLSGRQVERWFRRRRNQDRPSLLKKFREASWRFTFYLIAFIAGMAVIVDKPWFYDMKKVWEGYPIQSTIPSQYWYYMIELSFYWSLLFSIASDVKRKDFKEQIIHHVATIILISFSWFANYIRAGTLIMALHDSSDYLLESAKMFNYAGWKNTCNNIFIVFAIVFIITRLVILPFWILHCTLVYPLELYPAFFGYYFFNSMMGVLQLLHIFWAYLILRMAHKFITGKLVEDERSDREETESSEGEEAAAGGGAKSRPLANGHPILNNNHRKND
chain 2: not shown

Variants of: B1
Experiment: co-immunoprecipitation (anti-HA IP, anti-Flag western blot, quantified)
Conditions: with FATP2-Flag [human]; CerS2-/- Hek293T cells, 48 h after transfection; three independent experiments; read off a plot

Row | Variant | response
1 | chain 1 H212A H213A | 1.4
2 | chain 1 S341A T346A S348A S349A | 6.2
